Results taken from patent US7052692.

How the values were obtained:
[1] = target: D-sequence-binding protein (D-BP) (human); experiment: cell-based or functional assay
[2] = test system: D-sequence-binding protein (D-BP), dephosphorylated form

Ratio of dephosphorylated/phosphorylated ssD-BP, EGF-R-transfected 293 clone 293-4 [1] | Ratio of dephosphorylated/phosphorylated ssD-BP, EGF-R-transfected 293 clone 293-5 [1] | Ratio of dephosphorylated/phosphorylated ssD-BP, EGF-R-transfected 293 clone 293-6 [1] | Ratio of dephosphorylated/phosphorylated ssD-BP, EGF-R-transfected 293 clone 293-8 [1] | Ratio of dephosphorylated/phosphorylated ssD-BP, EGF-R-transfected 293 clone 293-12 [1] | Ratio of dephosphorylated/phosphorylated ssD-BP, control untransfected 293 cells [1] | Ratio of dephosphorylated/phosphorylated ssD-BPs, average of the EGF-R-transfected 293 cell clones [1] | Substance | in vitro phosphorylation assay followed by EMSA with the D(-) probe [2]
0.31 | 0.45 | 0.36 | 0.51 | 0.64 | 3.5 | 0.45 | human epidermal growth factor receptor (EGF-R) (from UniProt P00533 25-1210) | 
 |  |  |  |  |  |  | purified EGF-R PTK (CalBiochem) | incubation of the ssD-BP with the purified EGF-R PTK resulted in phosphorylation of this protein whereas incubation in the presence of ATP alone had no effect
